According to PMC9860181 (Plant Communications, 2022):
Where two headings read alike, the source gives them in different places.

Key:
UVR8^W285A-Strep II [1] = biological target: T1, UVR8^W285A-Strep II (A. thaliana, UniProt Q9FN03 1-440, W285A); test: pull-down
T1 sequence: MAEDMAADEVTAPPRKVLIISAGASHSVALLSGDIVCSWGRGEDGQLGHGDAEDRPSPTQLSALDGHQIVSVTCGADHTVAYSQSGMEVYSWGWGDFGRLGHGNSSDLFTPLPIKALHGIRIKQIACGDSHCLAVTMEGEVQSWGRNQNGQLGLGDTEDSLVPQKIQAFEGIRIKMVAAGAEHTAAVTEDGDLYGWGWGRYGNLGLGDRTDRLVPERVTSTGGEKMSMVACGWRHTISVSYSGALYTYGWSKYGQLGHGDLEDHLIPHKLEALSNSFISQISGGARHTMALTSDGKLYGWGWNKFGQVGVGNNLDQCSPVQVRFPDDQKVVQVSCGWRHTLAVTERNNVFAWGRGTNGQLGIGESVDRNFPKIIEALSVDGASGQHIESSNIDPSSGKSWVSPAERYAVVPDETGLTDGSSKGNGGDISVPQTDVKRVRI

UVR8^W285A-Strep II [2] = biological target: T1, UVR8^W285A-Strep II; test: pull-down; remark: listed apart in the source
[3] = biological target: the molecule itself; test: SDS-PAGE of dimer and monomer
[4] = biological target: T2, UVR8^W285A (residues 12–421) (A. thaliana, UniProt Q9FN03 12-421, W285A); test: crystal structure
T2 sequence: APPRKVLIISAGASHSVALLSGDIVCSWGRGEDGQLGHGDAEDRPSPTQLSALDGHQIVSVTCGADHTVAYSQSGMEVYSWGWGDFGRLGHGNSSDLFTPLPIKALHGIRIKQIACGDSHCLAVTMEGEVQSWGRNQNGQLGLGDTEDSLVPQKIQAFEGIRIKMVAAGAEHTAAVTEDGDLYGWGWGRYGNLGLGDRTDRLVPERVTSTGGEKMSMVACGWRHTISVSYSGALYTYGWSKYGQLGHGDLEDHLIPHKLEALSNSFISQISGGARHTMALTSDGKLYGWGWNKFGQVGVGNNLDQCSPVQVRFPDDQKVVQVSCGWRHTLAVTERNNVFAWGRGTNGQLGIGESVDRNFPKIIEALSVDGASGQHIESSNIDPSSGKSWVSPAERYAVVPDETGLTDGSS

B1: REPRESSOR OF UV-B PHOTOMORPHOGENESIS 2 (RUP2), C-terminal 3×Flag (natural protein)
chain: MNTLHPHKQQQEQAQQQEEARYEWDLSLSTVVSSSSSSASDVIGAIEFDPTDNIVATAGISRKIRFYGLPSLLRNNAVSGTGVSFVDQATACEYYICTPAKLSSLRWRPGSGGRVIGSGDYDGVVMEYDLEKRTPVFERDEHGGRRVWSVDYTRHGGASTVGASGSDDGTMQVWDPRCPPEESVGVVRPAGICRSAVCCVEFDPSGGPAVAVGCADRKGYVYDIRKLVDPALTLQGHTKTVSYVRFLDGGTVVTAGTDGCLKLWSVEDGRVIRTYEGHVNNRNFVGLSVWRNGALFGCGSENNRVFVYDRRWGKPVWVDGFEPVGMNSGSDKRFVSSVCWRQSGVDQCTLVAGGSDGVLQVYVGKRKP
binding result (UVR8^W285A-Strep II [1]): binds

B2: REPRESSOR OF UV-B PHOTOMORPHOGENESIS 1 (RUP1), C-terminal 3×Flag (natural protein)
chain: MEALFCSEIPNNNIRSSINDLSSSSSYTWPMIMTSSSSSSSSPTIMNIENIPRCDWDLSLSAVVSSASTGSDAIGAIEFDPTGEIIATGGIARKIRSYRLSSLLESRDDHVTASESYICTPAKLSSLKWRPDFSGRVIGSGDYDGVVTEYDVEKQVPVSERDEHGGRRIWSVDYTLYNGSLIGASGSDDGTVQMWDPRNGGTLEETVRPGGGAAICSVEFDPFGGSSIAVGCADRNAYVYDIRRLVDPLIVLDGHTKTVTYARFMDSHTIVTGSTDGSLKQWDIDNGRRVVRTYRGHVNSRNFVGLSVWRHGGLVVSGSENNQVFVYDKRWEEPVWVCGLGHTNRFGSDRRFVSSVCLRQVDEDWCTLVAGGSDGALEIFSGKQS
binding result (UVR8^W285A-Strep II [2]): binds

B3: UVR8^N396 (residues 1–396) (domain or fragment)
chain: MAEDMAADEVTAPPRKVLIISAGASHSVALLSGDIVCSWGRGEDGQLGHGDAEDRPSPTQLSALDGHQIVSVTCGADHTVAYSQSGMEVYSWGWGDFGRLGHGNSSDLFTPLPIKALHGIRIKQIACGDSHCLAVTMEGEVQSWGRNQNGQLGLGDTEDSLVPQKIQAFEGIRIKMVAAGAEHTAAVTEDGDLYGWGWGRYGNLGLGDRTDRLVPERVTSTGGEKMSMVACGWRHTISVSYSGALYTYGWSKYGQLGHGDLEDHLIPHKLEALSNSFISQISGGWRHTMALTSDGKLYGWGWNKFGQVGVGNNLDQCSPVQVRFPDDQKVVQVSCGWRHTLAVTERNNVFAWGRGTNGQLGIGESVDRNFPKIIEALSVDGASGQHIESSNIDPSS
binding result [3]: binds

B4: RUP2 (residues 21–366) (domain or fragment)
chain: RYEWDLSLSTVVSSSSSSASDVIGAIEFDPTDNIVATAGISRKIRFYGLPSLLRNNAVSGTGVSFVDQATACEYYICTPAKLSSLRWRPGSGGRVIGSGDYDGVVMEYDLEKRTPVFERDEHGGRRVWSVDYTRHGGASTVGASGSDDGTMQVWDPRCPPEESVGVVRPAGICRSAVCCVEFDPSGGPAVAVGCADRKGYVYDIRKLVDPALTLQGHTKTVSYVRFLDGGTVVTAGTDGCLKLWSVEDGRVIRTYEGHVNNRNFVGLSVWRNGALFGCGSENNRVFVYDRRWGKPVWVDGFEPVGMNSGSDKRFVSSVCWRQSGVDQCTLVAGGSDGVLQVYVGKR
binding result [4]: binds
